Measurements: patent US12428627B2, “Mutant p-hydroxyphenylpyruvate dioxygenase, and coding nucleic acid and use thereof” (Qingdao Kingagroot Chemical Compound Co., Ltd., priority 2018, dated 2025)
Changes are numbered by the printed parent chain. Names may count otherwise.

Columns and labels:
[1] = tested on: Huaidao No. 5 rice seedlings; assay: Gene-edited rice seedlings (base editing / homologous replacement of HPPD gene) on medium containing tembotrione; assay type: in vivo; details: medium containing 0.4 μM tembotrione
Protocol: The calli of Huaidao No. 5 (at least 3000 callis) were infected according to the aforesaid method for infecting rice callis with Agrobacterium. After being infected with Agrobacterium, the infected calli were transferred to a 50 mg/L hyg screening medium for screening culture. After three rounds (15 days×3) of screening, the blond calli with good growth state were picked out to differentiate in a differentiation medium, and 0.2 μM tembotrione was added during the differentiation process for screening. After for 3-4 weeks, about 1,500 seedlings with around 1 cm were obtained. As to the about 1,500 differentiated seedlings, the vast majority of which had been bleached, and only 4 seedlings remained normal green. The 4 seedlings were transplanted to a rooting medium containing 0.4 μM tembotrione and cultivated for 2 weeks, wherein two seedlings had been bleached, while the other two seedlings remained green (FIG. 14A). A small number of leaves were used to extract genomic DNA by CTAB method. PCR was carried out by using the primers oshppd54F: TTCCACCACGTCGAGCTC and Oshppd356R: […]. The amplified product was detected by 1% agarose electrophoresis and sequenced by Sanger sequencing method. […]

rice HPPD (OsHPPD) = assay: Color reaction of recombinant E. coli expressing wild-type or mutant rice HPPD, cultured in 96-well plate in medium containing an HPPD-inhibiting herbicide and tyrosine; assay type: cell-based, Oryza sativa; parameters: key to relative resistance to Tembotrione / relative resistance to Benzuofucaotong metabolic product / relative resistance to Huanbifucaotong / relative resistance to Topramezone / relative resistance to Mesotrione / resistance to Tembotrione / resistance to Benzucfucaotong metabolic product / resistance to Huanbifucaotong / resistance to Topramezone / resistance to Mesotrione: The more the plus sign “+”, the deeper the color and the higher the resistance/tolerance as compared to the wild type; details: for resistance ranking in color reaction: compound 101
From the text: The rice full-length OsHPPD enzyme has 446 amino acids and its amino acid sequence is set forth in SEQ ID NO: 2, wherein the amino acids 1-50 are considered to constitute a signal peptide which is responsible for directing into chloroplast (Siehl et al. Plant Physiol. 2014 November; 166(3): 1162-1176). Therefore, from the amino acid at the 51-position to the amino acid at the […], a saturated random mutation was made for each amino acid. This was achieved by performing a bridge PCR by using a primer containing a coding sequence of an amino acid to be mutated into NNK and another suitable conventional primer. In NNK, N represented A/T/G/C and K represented G/T, and the NNK codon could encode any one of 20 amino acids or terminators. Accordingly, this was a saturated mutation. Please see: Kille S. Acevedo-Rocha C G, Parra L P, Zhang Z G, Opperman D J, Reetz M T, Acevedo J P (2013) Reducing codon redundancy and screening effort of combinatorial protein libraries created by saturation mutagenesis. ACS Synth Biol 2(2):83-92; Directed Evolution Library Creation: methods and protocols 2nd ed. Edited by Elizabeth M. J. Gillam, Janine N. Copp and David F. Ackerley New York, NY United States: Springer, 2014. doi:10.1007/978-1-4939-1053-3. A large number of mutants would be produced. The mutant was cloned into a linearized pET-44a vector and transformed into E. co/i, which was cultivated by using a 96-well plate in a 2×YT culture solution containing an HPPD-inhibiting herbicide (such as 1-2 μM tembotrione) and a substrate tyrosine (1 g/L) in a shaker at 28° C. and 150 rpm for 24 hours for expression, and then the mutants were rapidly screened out according to their color browning. By using the method, 10 single amino acid mutants, A103S, H141R, H141 K, H141T, A165V, V191I, R220K, G342D, D370N and K410I, were screened out. The color reaction of these resistant mutants in the presence of tembotrione and the metabolic product of benzuofucaotong relative to that of the wild type was as shown in FIG. 1.
Similarly, the color reaction of these mutants in the presence of the other three HPPD-inhibiting herbicides huanbifucaotong, topramezone and mesotrione were determined, see FIGS. 2 and 3. The resistance/tolerance of each of the mutants to the five herbicides was roughly estimated on the basis of color changes thereof and the results were shown in Table 1. The more the plus sign “+”, the deeper the color and the higher the resistance/tolerance as compared to the wild type.
HPPD-inhibiting herbicides inhibited HPPD enzymatic activity. When tyrosine was converted to 4-hydroxyphenylpyruvate (HPP) under the action of tyrosine transaminase, the inactivated HPPD was unable to oxidize 4-hydroxyphenylpyruvate into homogentisic acid (HGA). HGA was dark brown. Therefore, if an HPPD mutant was resistant to or tolerant to an herbicide, after expressed in E. coli, the mutant could also oxidize 4-hydroxyphenylpyruvate into homogentisic acid, whereby dark brown appeared. Therefore, E. coli was cultured in a 2×YT culture medium containing a HPPD-inhibiting herbicide and a substrate tyrosine using a 96-well plate to express HPPD, and these mutants were rapidly screened according to their color changes. • (1) Preparation of 2×YT culture medium (1 g/L L-Tyr, 0.1 mM IPTG, 0.01 mM MnCl2 and 100 mg/L ampicillin were added). • (2) 0.1 mL of the above medium was added to each well of a 96-well plate, and the expression clones of OsHPPD wild type or mutant (OsHPPD Mut) from the E. coli plate obtained by the above transformation were subjected to liquid culture in the 96-well plate. HPPD inhibitors having a final concentration of 1 μM-20 μM were added according to different selected agents, for example, the final concentration of tembotrione was 1.7 μM while mesotrione was 10 μM. […]

OsHPPD = assay: HPPD enzyme activity assay: Km, Kcat and Kcat/Km of OsHPPDs; assay type: biochemical, Oryza sativa; details: substrate 4-HPP
Protocol: The rice OsHPPD protein and homogentisate 1,2-dioxygenase (HGD) were obtained by heterologously expressed in E. coli wherein the gene was inserted into the pET 15b expression vector and expressed in the BL21 (DE3) expression strain, and purified by the Ni-NTA resin. • (1) The HPPD open reading frame (ORF) of the positive clone was cloned into the pET-15b vector to form a 6His-HPPD expression vector, and transformed into the BL21 (DE3) cell. The expression strain was inoculated in 10 mL of 2×YT culture medium, and cultivated overnight on a shaker at 37° C. and 200 rpm. The 10 mL of the culture was inoculated in 1 L of 2×YT culture medium and cultivated until the OD600 reached 0.6-0.8, cooled to a temperature of 16° C., and subjected to induced-expression with 0.2 mM IPTG (isopropyl thiogalactoside) overnight. The strains were collected by centrifugation at 2800×g. • (2) The collected strains were re-suspended with the buffer A (50 mM Tris pH 8.0, 500 mM NaCl, 20 mM imidazole), to which PMSF (phenylmethanesulfonyl fluoride) at the final concentration of 1 mM and 250 μL of a protease inhibitor cocktail (i.e., a mixture of multiple protease inhibitors), and mixed. The cells were broken by ultrasound in ice-bath (40% total power, work for 3 seconds/6 seconds interval, 2×30 minutes (Ningbo Scientz Biotechnology Co., Ltd., Ningbo, China)), and centrifuged at 12000 rpm at 4° C. for 30 minutes; and the supernatant was filtered with a 0.22 μm filter membrane. • (3) Purification with the Ni-NTA column: the supernatant was in contact with the Ni-NTA resin, then rinsed with a buffer A containing 50 mM imidazole to remove the impurities, and finally, eluted with an elution buffer containing 400 mM imidazole. • (4) The approximate purity of the protein of interest was analyzed by SDS-PAGE. The eluates containing of the protein of interest were combined and concentrated by an ultrafiltration device (10 kDa molecular weight cut-off, Amicon Ultra). The solution was replaced with a solution containing 20 mM Tris-HCl and having a pH of 7.5 for at least 3 times to desalt. The total protein concentration was determined by the BCA method.
(§1) • 1. The activity of a HPPD enzyme was determined by detecting the conversion of 4-hydroxyphenylpyruvate (4-HPP) to homogentisic acid (HGA) catalyzed by the HPPD enzyme and the conversion of HGA to maleylacetoacetate (MAA) catalyzed by homogentisate dioxygenase. […] 6 μl of 4-hydroxyphenylpyruvate (4-HPP) having a concentration that was as 50 times as the final concentration of the substrate were added to an ELSA plate, and then 294 μL of hydroxyethylpiperazine ethanesulfonic acid (HEPES) with a final concentration of 25 mM and pH of 7, 2 mM of Vitamin C, 10 mM FeSO4, 50 nM homogentisate dioxygenase and 5 to 240 nM HPPD enzyme were added thereto at one time. The final concentration of reaction substrate 4-HPP usually ranged from 1 to 100 μM. • 3. The absorbance changes of the reaction wells at 318 nm were continuously monitored by a UV ELISA detector (ReadMax 1900 photoabsorption type full-wavelength microplate reader) (Shanghai). • 4. Determination of Km, Kcat and Kcat/Km of OsHPPDs
Vmax is the maximum catalytic reaction rate achievable by enzymatic catalysis. The Michaelis constant Km is the concentration of a substrate required when the enzyme catalyzed the reaction to achieve half of the maximum rate (Vmax). The Km value is a constant and independent of the enzyme concentration, and altered as substrate type, reaction temperature, pH, and ionic strength changed. […] is a catalytic constant of an enzyme and referred to the number of substrate molecules that could be catalyzed by an enzyme molecule or enzyme active center per second. KCat/Km represents the catalytic efficiency of enzyme. It could be seen from the data in the table that the catalytic efficiency of most HPPD mutants was enhanced.

OsHPPD proteins = assay: Inhibitory activity (IC50) of the herbicide 101 and huanbifucaotong against OsHPPD proteins; assay type: biochemical, Oryza sativa; details: for resistance in in vitro enzyme activity experiments: herbicides 101 and huanbifucaotong
Protocol: as §1
• 5. Determination of inhibitory activity (IC50) of the herbicide 101 and huanbifucaotong against OsHPPD proteins
Due to the unique properties of each of 101 and huangbifucaotong, the degree of the increased IC50 value is not completely consistent for the two HPPD herbicides.

[2] = Table 1, single-site mutants, estimated from color change, wild type = +
[3] = Table 3, single-site and multi-site mutants, different time and plates, estimated from color shades

B1: H141R: single-site mutant rice HPPD (protein, listed as Oryza sativa)
chain: MPPTPTPTATTGAVSAAAAAGENAGFRLVGHRRFVRANPRSDRFQALAFHHVELWCADAASAAGRFAFALGAPLAARSDLSTGNSAHASLLLRSASVAFLFTAPYGGDHGVGADAATTASIPSFSPGAARRFAADHGLAVRAVALRVADAADAFRASVAAGARPAFQPADLGGGFGLAEVELYGDVVLRFVSHPDGADAPFLPGFEGVSNPGAVDYGLRRFDHVVGNVPELAPVAAYISGFTGFHEFAEFTAEDVGTAESGLNSVVLANNAETVLLPLNEPVHGTKRRSQIQTYLDHHGGPGVQHIALASDDVLGTLREMRARSAMGGFEFLAPPPPNYYDGVRRRAGDVLSEEQINECQELGVLVDRDDQGVLLQIFTKPVGDRPTFFLEMIQRIGCMEKDESGQEYQKGGCGGFGKGNFSELFKSIEEYEKSLEAKQAPTVQGS
modifications: The amino acid sequence of Wild-Type rice HPPD protein (OsHPPD _WT)
state of successfully edited seedlings [1]: remain green
color change compared with wild type (rice HPPD (OsHPPD); tembotrione and metabolic product of benzuofucaotong, FIG. 1): obviously deeper than that of the wild type

B2: WT: wild-type rice p-hydroxyphenylpyruvate dioxygenase (OsHPPD), SEQ ID NO: 2 (protein, listed as Oryza sativa)
chain: B1 chain with R141H
modifications: The amino acid sequence of Wild-Type rice HPPD protein (OsHPPD _WT)
Km (OsHPPD): 6.7 µM
concentration of compound 101 at which activity is completely inhibited (OsHPPD proteins; FIG. 10 inhibition curve): about 60 μM
relative resistance to Benzuofucaotong metabolic product (rice HPPD (OsHPPD); [2]): +
relative resistance to Huanbifucaotong (rice HPPD (OsHPPD); [2]): +
relative resistance to Mesotrione (rice HPPD (OsHPPD); [2]): +
relative resistance to Tembotrione (rice HPPD (OsHPPD); [2]): +
relative resistance to Topramezone (rice HPPD (OsHPPD); [2]): +
resistance to Benzucfucaotong metabolic product (rice HPPD (OsHPPD); [3]): +
resistance to Huanbifucaotong (rice HPPD (OsHPPD); [3]): +
resistance to Mesotrione (rice HPPD (OsHPPD); [3]): +
resistance to Tembotrione (rice HPPD (OsHPPD); [3]): +
resistance to Topramezone (rice HPPD (OsHPPD); [3]): +

B3: H141R/N338D/G342D/K418P: mutant rice HPPD (protein)
chain: B1 chain with N338D, G342D, K418P
Km (OsHPPD): 18.8 µM
resistance in in vitro enzyme activity experiments (OsHPPD proteins): higher resistance
resistance ranking in color reaction (rice HPPD (OsHPPD)): strongest resistance

B4: N338D/G342D/R346H: mutant rice HPPD (protein, listed as Oryza sativa)
chain: B1 chain with R141H, N338D, G342D, R346H
modifications: The amino acid sequence of Wild-Type rice HPPD protein (OsHPPD _WT)
Km (OsHPPD): 6.3 µM
resistance in in vitro enzyme activity experiments (OsHPPD proteins): good resistance
resistance ranking in color reaction (rice HPPD (OsHPPD)): highest resistance
